From paper PMC4141738

Target: endogenous PABPC1 of HEK 293T cells (human (endogenous in HEK 293T)) (UniProt P11940)
UniProt P11940, sequence (P11940 whole entry): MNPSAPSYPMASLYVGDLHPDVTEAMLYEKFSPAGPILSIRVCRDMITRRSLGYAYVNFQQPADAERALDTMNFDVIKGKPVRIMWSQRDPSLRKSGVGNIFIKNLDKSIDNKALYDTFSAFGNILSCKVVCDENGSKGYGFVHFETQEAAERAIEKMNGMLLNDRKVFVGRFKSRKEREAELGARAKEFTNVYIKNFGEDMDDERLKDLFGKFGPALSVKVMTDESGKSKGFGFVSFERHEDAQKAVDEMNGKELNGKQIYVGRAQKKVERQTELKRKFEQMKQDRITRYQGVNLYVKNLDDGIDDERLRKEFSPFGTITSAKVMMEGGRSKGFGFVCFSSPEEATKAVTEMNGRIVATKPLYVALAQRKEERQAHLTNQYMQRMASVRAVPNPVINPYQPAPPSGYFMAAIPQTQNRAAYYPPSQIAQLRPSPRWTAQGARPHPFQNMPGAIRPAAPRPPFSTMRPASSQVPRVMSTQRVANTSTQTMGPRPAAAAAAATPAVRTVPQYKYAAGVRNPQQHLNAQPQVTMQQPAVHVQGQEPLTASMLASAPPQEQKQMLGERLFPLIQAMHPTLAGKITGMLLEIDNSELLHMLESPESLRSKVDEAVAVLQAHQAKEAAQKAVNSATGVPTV

Row | miniμ ter310 construct A reporter mRNA level (RT-qPCR) relative to LacZ-MS2 on tethering of eIF4GId-MS2 in HeLa cells [fold] | Substance | miniμ ter310 construct A reporter mRNA level (RT-qPCR) relative to LacZ-MS2 on tethering of eIF4GIe-MS2 in HeLa cells [fold]
1 | 4 | eIF4GI isoform d fused to MS2-HA (eIF4GId-MS2) (natural protein) | 
2 |  | eIF4GI isoform e fused to MS2-HA (eIF4GIe-MS2) (natural protein) | 4
